Patent publication US20100292443A1 (published 2010)

Target: T1, protein A (immobilized on a protein A column) (UniProt P38507 37-327)
T1 construct: Other paragraphs mention recombinant protein A on agarose and ProSep-vA-Ultra resin; also called protein A resin
Experiment: protein A column equilibrated with 20 mM TRIS pH 8, after papain digestion
Method: Purified, intact anti-S1P IgG was digested with activated papain (incubated 10 mg/ml papain in 5.5 mM cysteine-HCL, 1 mM EDTA, 70 μM 2-mercaptoethanol for 0.5 hours at 37° C.) in digestion buffer (100:1 LT1009:papain in 50 mM sodium phosphate pH 7.2, 2 mM EDTA). After 2 hours at 37° C., the protease reaction was quenched with 50 mM iodoacetamide, dialyzed against 20 mM TRIS pH 9, and loaded onto 2×5 ml HiTrap Q columns. The bound protein was eluted with a linear gradient of 20 mM TRIS pH 8, 0.5 M NaCl and collected in 4 ml fractions. The fractions containing the anti-S1P Fab fragment were pooled and loaded onto a protein A column equilibrated with 20 mM TRIS pH 8. The intact antibody and the Fc fragment bound to the resin, while the Fab fragment was present in the flow through fraction. The Fab fragment was concentrated using a centricon-YM30 centrifugal concentrator (Millipore, Cat No 4209), dialyzed against 25 mM HEPES pH 7, and stored at 4° C.

B1: LT1009 Fab fragment (anti-S1P Fab fragment, from papain digestion) (Fab)
heavy: EVQLVQSGAEVKKPGESLKISCQSFGYIFIDHTIHWMRQMPGQGLEWMGAISPRHDITKYNEMFRGQVTISADKSSSTAYLQWSSLKASDTAMYFCARGGFYGSTIWFDFWGQGTMVTVSSASTKGPSVFPLAPSSKSTSGGTAALGCLVKDYFPEPVTVSWNSGALTSGVHTFPAVLQSSGLYSLSSVVTVPSSSLGTQTYICNVNHKPSNTKVDKRVEPKSCDKTH
light: ETTVTQSPSFLSASVGDRVTITCITTTDIDDDMNWFQQEPGKAPKLLISEGNILRPGVPSRFSSSGYGTDFTLTISKLQPEDFATYYCLQSDNLPFTFGQGTKLEIKRTVAAPSVFIFPPSDEQLKSGTASVVCLLNNFYPREAKVQWKVDNALQSGNSQESVTEQDSKDSTYSLSSTLTLSKADYEKHKVYACEVTHQGLSSPVTKSFNRGEC
- binding result: no binding
